Reference: patent publication US7897568B2, “Compositions for treatment of cancer” (priority 2006, dated 2011)
Where a SMILES comes first, the peptide text is derived from it. Where no end group is shown, it is not given here.

Assays:
GST = GST (Schistosoma japonicum, UniProt P08515); experiment: Surface plasmon resonance control with GST as analyte; format: binding; conditions: SPR, GST as the analyte
Method: Kinetics of the SNCG-ANK interaction were determined. […] Sensograms were deconvoluted globally, using a simultaneous fit for both association (ka, M^−1s^−1) and dissociation (kd, s^−1).
The binding interaction between the ANK peptide and GST-SNCG was examined in real time using a BIACORE 3000 biosensor system (Biacore Inc., NJ). Because of the relatively large amount required in this experiment, GST-SNCG, which expresses at least 2 times better than SNCG, was used. […] The changes in the refractive index at the sensor chip surface with respect to time are scaled in resonance units (RU). For proteins, every 1000 RU corresponds to a surface mass change of ˜1 ng/mm^2. All experiments were performed at 25° C. using research grade carboxymethylated dextran matrix (CM5) sensor chips (Biacore Inc.). […] Prior to all analyses the GST-SNCG and ANK peptide preparations were dialyzed against the running buffer to minimize bulk effects. Blank analyte injections (running buffer only) were subtracted from the specific binding isotherms to further minimize instrument noise.

SNCG-BubR1 interaction = target: T1, SNCG-BubR1 interaction (Homo sapiens, UniProt O76070); experiment: Co-immunoprecipitation of SNCG and myc-BubR1 with or without EGFP-ANK in COS7 cells; format: cell-based; conditions: COS7 cells expressing BubR1, SNCG and EGFP-ANK
T1 construct: expressed in transfected cells; host or cells: COS7

GST-SNCG = target: T2, GST-SNCG (Homo sapiens, UniProt O76070); experiment: GST pull-down of EGFP-ANK with GST-SNCG; format: binding; conditions: FIG. 5D, GST as control
T2 construct: The SNCG coding region was amplified from the human cDNA clone; made in house; host or cells: Escherichia coli BL21 (DE3)
Text: FIGS. 5A through 5D show co-localization, co-immunoprecipitation (co-IP) and GST pull down experiments, using an enhance green fluorescent protein (EGFP)-ANK fusion protein, which confirm that SNCG associates with the ANK peptide in vivo. FIG. 5A is a western blot depicting detection of EGFP-ANK expression in COS7 cells. Lanes 2 and 3 were samples transfected with different clones, cl-4 and cl-8, respectively, of pEGFP-ANK plasmid. In FIG. 5B, MCF7-SNCG cells were transfected with pEGFP-ANK, fixed on a cover slip, permeabilized and probed with anti-SNCG and anti-GFP antibodies to observe co-localization. Fluorescent cells were visualized using an ×100 objective (oil) on an inverted confocal microscope (Leica). FIGS. 5C and 5D are western blots showing association of SNCG and ANK peptide as evidenced by co-IP of SNCG with EGFP-ANK in MCF7-SNCG and MCF7-neo cells. In these experiments, MCF7-SNCG and MCF7-neo cells were transfected with pEGFP-ANK or pEGFP plasmids. […]
GST-SNCG (20 μg) protein or GST alone was added to a pre-equilibrated slurry of glutathione-sepharose 4B and incubated for 60 minutes. […] After extensive washes, the beads were collected, boiled in sample buffer, separated on 12% SDS gel and analyzed by western blotting. […]

T2 sequence (O76070 whole entry): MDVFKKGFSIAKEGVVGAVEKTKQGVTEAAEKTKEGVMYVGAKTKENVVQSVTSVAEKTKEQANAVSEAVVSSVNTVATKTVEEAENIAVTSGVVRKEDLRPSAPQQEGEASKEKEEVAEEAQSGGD
T1 sequence (O76070 whole entry): as above
Sequence of GST (P08515 whole entry): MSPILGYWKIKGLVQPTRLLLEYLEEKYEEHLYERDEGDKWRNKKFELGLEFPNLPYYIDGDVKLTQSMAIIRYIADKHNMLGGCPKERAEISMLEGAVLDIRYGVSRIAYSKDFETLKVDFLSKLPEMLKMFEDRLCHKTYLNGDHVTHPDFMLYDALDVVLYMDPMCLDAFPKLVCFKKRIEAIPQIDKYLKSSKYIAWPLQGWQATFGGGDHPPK

Molecule	binding of GST analyte to immobilized ANK peptide (GST)	myc-BubR1 signal in anti-SNCG IP complex (SNCG-BubR1 interaction)	pull down by GST-SNCG (GST-SNCG)
CC[C@H](C)[C@H](NC(=O)[C@H](CS)NC(=O)CNC(=O)[C@H](CC(C)C)NC(=O)[C@H](Cc1c[nH]cn1)NC(=O)CNC(=O)[C@H](Cc1c[nH]cn1)NC(=O)[C@H](CCC(N)=O)NC(=O)[C@H](CO)NC(=O)[C@H](C)NC(=O)[C@@H](NC(=O)[C@H](Cc1c[nH]cn1)NC(=O)[C@H](CC(C)C)NC(=O)[C@H](C)NC(=O)[C@H](CO)NC(=O)[C@H](CC(N)=O)NC(=O)CNC(=O)[C@H](CCCCN)NC(C)=O)C(C)C)C(=O)N[C@@H](CCC(N)=O)C(=O)N[C@H](C(=O)N[C@@H](CC(C)C)C(=O)N[C@H](C(=O)N[C@@H](CCCNC(=N)N)C(=O)N[C@@H](Cc1ccc(O)cc1)C(=O)NCC(=O)N[C@@H](C)C(=O)N[C@@H](CC(N)=O)C(=O)N[C@H](C(=O)N[C@H](C(=O)N[C@@H](CCSC)C(=O)N[C@@H](CCC(N)=O)C(=O)N[C@@H](CC(N)=O)C(=O)N[C@@H](Cc1c[nH]cn1)C(=O)NCC(N)=O)[C@@H](C)O)C(C)C)C(C)C)[C@@H](C)O [ANK peptide] (Ac-KGNSALHVASQHGHLGCIQTLVRYGANVTMQNHG-NH2)	No binding		
EGFP-ANK: ANK peptide expressed as a fusion protein with its amino-terminal linked to EGFP protein, approximately 37 kDa ({EGFP}-KGNSALHVASQHGHLGCIQTLVRYGANVTMQNHG)		not detected	SNCG is capable of immunoprecipitating EGFP-ANK
